Assay [1] deals with T1, orexin receptor 1 (OX1R) (human (endogenous in HepG2)) (UniProt O43613).
T1 sequence: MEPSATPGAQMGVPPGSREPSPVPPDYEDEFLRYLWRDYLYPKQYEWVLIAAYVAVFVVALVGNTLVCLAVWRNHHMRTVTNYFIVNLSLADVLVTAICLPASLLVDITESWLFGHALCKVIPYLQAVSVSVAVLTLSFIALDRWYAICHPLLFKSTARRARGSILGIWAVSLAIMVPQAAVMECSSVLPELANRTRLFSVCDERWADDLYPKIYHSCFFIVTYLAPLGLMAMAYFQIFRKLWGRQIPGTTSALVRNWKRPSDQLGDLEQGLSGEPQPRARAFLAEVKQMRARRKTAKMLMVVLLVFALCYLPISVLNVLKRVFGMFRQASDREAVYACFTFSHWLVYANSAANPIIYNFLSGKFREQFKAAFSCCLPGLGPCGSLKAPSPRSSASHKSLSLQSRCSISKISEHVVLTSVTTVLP

For assay [2], the target named is T1, orexin receptor 1 (OX1R) (human (endogenous in HepG2)). This is another data set of the same source.
Assay [3] has the same target. This is another data set of the same source.

QPLPDCCRQKTCSCRLYELLHGAGNHAAGILTL [Orexin A] yielded a cellular ATP content in HepG2 cells, orexin A 10^-9 to 10^-7 M for 2 h, fold of control; abrogated by the OX1R inhibitor SB334867 (10^-6 M) in assay [1] of 3.03 fold. In addition, in assay [2], the GLUT1 protein expression (western blot) in HepG2 cells, orexin A 10^-9 to 10^-7 M for 2 h, fold of untreated cells; blocked by the OX1R inhibitor SB334867 (10^-6 M) amounted to 2.43 fold and the glucose uptake (2-deoxy-D-[3H]glucose) in HepG2 cells, orexin A 10^-9 to 10^-7 M, fold of control; blocked by the OX1R inhibitor SB334867 (10^-6 M) was 1.71 fold. In assay [3], the LDHA mRNA (real-time PCR) in HepG2 cells, 10^-7 M orexin A for 2 h, fold against control; dampened by the OX1R inhibitor SB334867 (10^-6 M) stood at 0.5 fold and the PDK1 mRNA (real-time PCR) in HepG2 cells, 10^-7 M orexin A for 2 h, fold against control; dampened by the OX1R inhibitor SB334867 (10^-6 M) stood at 0.53 fold.

The record behind these values is publication PMC5590901.
